Here are results for seven molecules from PMC5300155, “Biochemical and biophysical investigations of the interaction between human glucokinase and pro-apoptotic BAD” (PLoS ONE, 2017).

A value given as a limit tells only on which side of the number the result lay.

The IC50 is the concentration that inhibits the measured activity by half.

Assay [1] deals with recombinant human Bcl-xL, Δ45–84, Δ210–233 variant (human) (UniProt Q07817). Nature of the assay: fluorescence polarisation; competition: 200 nM f-BH3, 50 nM Bcl-xL, BAD forms varied 0–50 μM; room temperature. Background: In fluorescence polarisation assays a small probe gives low polarisation when free and higher when bound to something large.
Assay [2] addresses T1, recombinant human Bcl-xL, Δ45–84, Δ210–233 variant (human, UniProt Q07817-1 1-209, Δ45–84).
T1 construct: Bcl-xL, human; loop 45-84 deleted and C-terminal residues 210-233 lacking; also called soluble, recombinant Bcl-xL
The assay is described as above. As to conditions: both partners purified.

For the next assay, the target named is T2, human pancreatic GCK (Homo sapiens, UniProt P35557).
T2 construct: hexahistidine (N); made in house; host or cells: glucokinase auxotroph BM5340(DE3)
T2 sequence (P35557 1-465): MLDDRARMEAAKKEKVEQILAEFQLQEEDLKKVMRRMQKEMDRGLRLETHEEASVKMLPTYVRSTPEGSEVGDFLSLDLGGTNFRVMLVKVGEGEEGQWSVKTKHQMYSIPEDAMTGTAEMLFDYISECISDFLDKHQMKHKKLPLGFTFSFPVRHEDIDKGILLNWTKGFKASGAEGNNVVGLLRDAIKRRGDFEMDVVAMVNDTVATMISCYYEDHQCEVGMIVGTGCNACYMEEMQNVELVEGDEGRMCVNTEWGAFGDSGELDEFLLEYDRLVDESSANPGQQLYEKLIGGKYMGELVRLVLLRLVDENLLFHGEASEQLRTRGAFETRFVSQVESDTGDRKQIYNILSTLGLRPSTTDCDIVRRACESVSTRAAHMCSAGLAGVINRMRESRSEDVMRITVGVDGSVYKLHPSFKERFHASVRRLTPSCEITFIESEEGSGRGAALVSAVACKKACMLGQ
Description: GCK activity, G6PDH-linked assay (lab's routine assay, 25°C). The following applies: for Increase in GCK activity relative to unmodified / wild-type protein: only at glucose concentrations below K0.5 (3SD, 3SA), phosphorylated BAD after cleavage of GST tag. In kind it is biochemical. The protocol: Recombinant human pancreatic GCK containing an N-terminal hexahistidine tag was produced in the glucokinase auxotroph BM5340(DE3) and purified using a previously described procedure. TEV protease was expressed as a GST-fusion protein from a pGEX plasmid encoding the S219V variant, provided by David Waugh (Addgene plasmid 8827). Expression was induced with IPTG (1 mM) for 4 h at 30°C. Cell pellets were resuspended in Tris buffer (50 mM, pH 8.0) containing NaCl (100 mM), glycerol (10% v/v), benzamidine (1 mM) and dithiothreitol (10 mM) and lysed via French Press. Polyethyleneimine (0.1%) was added to the lysate and protein was purified on a glutathione-affinity column (GSTrap, GE Sciences). TEV protease was flash frozen and stored at -80°C for up to 1 month.
GCK activity was assayed using a glucose 6-phosphate dehydrogenase (G6PDH)-linked assay at 25°C. 50 nM GCK was assayed in buffer containing HEPES (100 mM, pH 7.4), KCl (50 mM), NADP^+ (0.5 mM), DTT (10 mM), MgCl2 (7 mM), G6PDH (1.5 U) and glucose (0–100 mM) in a total volume of […]. Addition of ATP (6 mM) initiated the reaction. Production of NADPH was measured at 340 nm. To determine the effect of BAD on GCK activity, 5 μL of BAD or buffer control was added to the reaction in a final volume of 100 μL. K0.5 values were determined by fitting to the Hill equation. The effect of BAD on GCK activity is reported as the percent rate increase at individual glucose concentrations, calculated as the average of a minimum of four rates of BAD-containing assays divided by the average of rates of BAD buffer-containing assays. The results represent the average of at least three independent preparations of pure BAD.

T1 sequence (Q07817 other isoform, or with tags, fused parts or gaps Δ45–84 | Δ45–84 | mutant): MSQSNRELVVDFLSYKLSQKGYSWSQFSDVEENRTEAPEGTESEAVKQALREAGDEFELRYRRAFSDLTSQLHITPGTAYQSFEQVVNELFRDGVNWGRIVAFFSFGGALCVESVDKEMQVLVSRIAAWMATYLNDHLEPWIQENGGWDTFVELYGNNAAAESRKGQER
Sequence of recombinant human Bcl-xL, Δ45–84, Δ210–233 variant (human) (Q07817 other isoform, or with tags, fused parts or gaps mutant): as the sequence (Q07817 other isoform, or with tags, fused parts or gaps Δ45–84 | Δ45–84 | mutant) above

With “BAD following cleavage and removal of the GST tag (from UniProt Q92934 1-168) (natural protein)”, the IC50 in assay [1] turned out to be 440 nM.

B1: S75D-S99D-S118D triple variant of BAD-GST (natural protein, human, UniProt Q92934 1-168, looked up)
chain: MFQIPEFEPSEQEDSSSAERGLGPSPAGDGPSGSGKHHRQAPGLLWDASHQQEQPTSSSHHGGAGAVEIRSRHSDYPAGTEDDEGMGEEPSPFRGRSRDAPPNLWAAQRYGRELRRMDDEFVDSFKKGLPRPKSAGTATQMRQSSSWTRVFQSWWDRNLGRGSSAPSQ
notes: BAD, human; 507 bp bad cDNA amplified from the IMAGE clone; triple phosphomimic; also called 3SD; source: E. coli BL21(DE3), purified as BAD-GST; not shown: GST, C-terminal, kept
For the molecule B1, in assay [2], the IC50 is greater than 19000 nM.

B2: phosphorylated BAD: phosphorylated BAD after cleavage of the GST tag (protein)
chain: MFQIPEFEPSEQEDSSSAERGLGPSPAGDGPSGSGKHHRQAPGLLWDASHQQEQPTSSSHHGGAGAVEIRSRHSSYPAGTEDDEGMGEEPSPFRGRSRSAPPNLWAAQRYGRELRRMSDEFVDSFKKGLPRPKSAGTATQMRQSSSWTRVFQSWWDRNLGRGSSAPSQ
modifications: phosphoserine at 75, 99 and 118 (by PKA, as for phosphorylated BAD-GST); left off: His6, N-terminal, state not stated | GST, C-terminal, cleaved
notes: phosphorylated BAD after cleavage of the GST tag
In the case of B2, the “Increase in GCK activity relative to unmodified / wild-type protein” value in the assay with human pancreatic GCK is on record as “to a similar extent as unmodified BAD”.

B3: S75D-S99D-S118D triple variant of BAD-GST: S75D-S99D-S118D triple variant of BAD-GST, mimics fully phosphorylated protein (protein)
chain: MFQIPEFEPSEQEDSSSAERGLGPSPAGDGPSGSGKHHRQAPGLLWDASHQQEQPTSSSHHGGAGAVEIRSRHSDYPAGTEDDEGMGEEPSPFRGRSRDAPPNLWAAQRYGRELRRMDDEFVDSFKKGLPRPKSAGTATQMRQSSSWTRVFQSWWDRNLGRGSSAPSQ
modifications: left off: His6, N-terminal, state not stated | GST, C-terminal, kept
notes: S75D-S99D-S118D triple variant of BAD-GST, mimics fully phosphorylated protein
With B3, in the assay with human pancreatic GCK (0.78 mM glucose, > 2 μM, comparable to phosphorylated BAD (15%)), the “Activation of GCK by triple variant” value was “A comparable degree of activation”. Also, in the assay with human pancreatic GCK, the “Increase in GCK activity relative to unmodified / wild-type protein” value was “to the same relative extent as wild-type BAD-GST”.

B4: 3SA: BAD-GST variant in which alanine was substituted at the three target serine residues (protein)
chain: MFQIPEFEPSEQEDSSSAERGLGPSPAGDGPSGSGKHHRQAPGLLWDASHQQEQPTSSSHHGGAGAVEIRSRHSAYPAGTEDDEGMGEEPSPFRGRSRAAPPNLWAAQRYGRELRRMADEFVDSFKKGLPRPKSAGTATQMRQSSSWTRVFQSWWDRNLGRGSSAPSQ
modifications: left off: His6, N-terminal, state not stated | GST, C-terminal, kept
notes: BAD-GST variant in which alanine was substituted at the three target serine residues
In the case of B4, the “Increase in GCK activity relative to unmodified / wild-type protein” value with human pancreatic GCK is recorded as “to the same relative extent as wild-type BAD-GST”.

B5: S75D-S99D double variant of BAD-GST (natural protein, human, UniProt Q92934 1-168, looked up)
chain: MFQIPEFEPSEQEDSSSAERGLGPSPAGDGPSGSGKHHRQAPGLLWDASHQQEQPTSSSHHGGAGAVEIRSRHSDYPAGTEDDEGMGEEPSPFRGRSRDAPPNLWAAQRYGRELRRMSDEFVDSFKKGLPRPKSAGTATQMRQSSSWTRVFQSWWDRNLGRGSSAPSQ
notes: BAD, human; 507 bp bad cDNA amplified from the IMAGE clone; double phosphomimic; source: E. coli BL21(DE3), purified as BAD-GST; not shown: GST, C-terminal, kept
Turning to B5, in assay [2], the IC50 turned out to be 87 nM.

B6: S118D BAD-GST variant (natural protein, human, UniProt Q92934 1-168, looked up)
chain: MFQIPEFEPSEQEDSSSAERGLGPSPAGDGPSGSGKHHRQAPGLLWDASHQQEQPTSSSHHGGAGAVEIRSRHSSYPAGTEDDEGMGEEPSPFRGRSRSAPPNLWAAQRYGRELRRMDDEFVDSFKKGLPRPKSAGTATQMRQSSSWTRVFQSWWDRNLGRGSSAPSQ
notes: BAD, human; 507 bp bad cDNA amplified from the IMAGE clone; phosphomimic; also called S118D variant; BAD-GST S118D; source: E. coli BL21(DE3), purified as BAD-GST; not shown: GST, C-terminal, kept
For B6, in assay [2], the IC50 was greater than 15000 nM.
